Measured values: patent US20160122421A1 (IPIERIAN, published 2016)
Changes are numbered by the printed parent chain.

T1: eTau 2
T1 construct: member of the group m9
T1 polypeptide: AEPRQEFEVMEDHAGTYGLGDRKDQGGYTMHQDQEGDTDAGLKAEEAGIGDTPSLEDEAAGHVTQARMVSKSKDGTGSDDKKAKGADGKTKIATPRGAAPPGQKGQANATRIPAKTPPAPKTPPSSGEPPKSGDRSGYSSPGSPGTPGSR

T2: eTau 1b
T2 construct: member of the group m9
T2 polypeptide: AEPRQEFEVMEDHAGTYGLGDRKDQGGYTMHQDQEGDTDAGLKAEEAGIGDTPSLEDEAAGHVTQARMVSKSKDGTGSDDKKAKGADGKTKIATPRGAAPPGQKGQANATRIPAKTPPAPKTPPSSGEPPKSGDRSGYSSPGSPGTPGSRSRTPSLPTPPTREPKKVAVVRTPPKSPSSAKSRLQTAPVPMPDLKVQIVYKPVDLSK

T3: eTau-4 peptide
T3 construct: also called synthetic eTau4 polypeptide
T3 peptide: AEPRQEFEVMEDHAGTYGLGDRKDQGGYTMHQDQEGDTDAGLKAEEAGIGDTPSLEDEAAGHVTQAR

B1: humanized IPN002 variant VH2/Vk2 (antibody, V domains shown)
VH: EVHLVESGGALVKPGGSLRLSCAASGFSFSKYGMSWVRQAPGKGLEWVATISSSGSRTYYPDSVKGRFTISRDNAKNTLYLQMNSLRAEDTAMYYCSISWDGAMDYWGQGTTVTVSS
VL: DVVMTQSPLSLPVTLGQPASISCKSSQSIVHSNGNTYLEWYLQKPGQSPQLLVYKVSNRFSGVPDRFSGSGSGTDFTLKISRVEAEDVGTYYCFQGSLVPWAFGGGTKVEIK
B2: VH3/Vk2 (antibody, V domains shown)
VH: B1 VH with H3Q
VL: B1 VL
notes: member of the group m7; also called humanized IPN002 variant VH3/Vk2
B3: VH1/Vk2 (antibody, V domains shown)
VH: B1 VH with N84S, R87K, A88S, T112S
VL: B1 VL
notes: member of the group m7; also called humanized IPN002 variant VH1/Vk2
B4: VH1/Vk4 (antibody, V domains shown)
VH: B1 VH with N84S, R87K, A88S, T112S
VL: B1 VL with V53I, T90V
notes: member of the group m7; also called humanized IPN002 variant VH1/Vk4
B5: VH3/Vk1 (antibody, V domains shown)
VH: B1 VH with H3Q
VL: B1 VL with V3L
notes: member of the group m7; also called humanized IPN002 variant VH3/Vk1
B6: humanized IPN002 variant VH2/Vk1 (antibody, V domains shown)
VH: B1 VH
VL: B1 VL with V3L
B7: VH1/Vk1 (antibody, V domains shown)
VH: B1 VH with N84S, R87K, A88S, T112S
VL: B1 VL with V3L
notes: member of the group m7; also called humanized IPN002 variant VH1/Vk1
B8: VH2/Vk4 (antibody, V domains shown)
VH: B1 VH
VL: B1 VL with V53I, T90V
notes: member of the group m7; also called humanized IPN002 variant VH2/Vk4
B9: VH3/Vk4 (antibody, V domains shown)
VH: B1 VH with H3Q
VL: B1 VL with V53I, T90V
notes: member of the group m7; also called humanized IPN002 variant VH3/Vk4
B10: VH3/Vk3 (antibody, V domains shown)
VH: B1 VH with H3Q
VL: B1 VL with T90V
notes: member of the group m7; also called humanized IPN002 variant VH3/Vk3
B11: VH4/Vk4 (antibody, V domains shown)
VH: B1 VH with H3Q, S97A
VL: B1 VL with V53I, T90V
notes: member of the group m7; also called humanized IPN002 variant VH4/Vk4
B12: humanized IPN002 variant VH2/Vk3 (antibody, V domains shown)
VH: B1 VH
VL: B1 VL with T90V
B13: VH4/Vk3 (antibody, V domains shown)
VH: B1 VH with H3Q, S97A
VL: B1 VL with T90V
notes: member of the group m7; also called humanized IPN002 variant VH4/Vk3
B14: VH1/Vk3 (antibody, V domains shown)
VH: B1 VH with N84S, R87K, A88S, T112S
VL: B1 VL with T90V
notes: member of the group m7; also called humanized IPN002 variant VH1/Vk3
B15: VH4/Vk2 (antibody, V domains shown)
VH: B1 VH with H3Q, S97A
VL: B1 VL
notes: member of the group m7; also called humanized IPN002 variant VH4/Vk2
B16: VH4/Vk1 (antibody, V domains shown)
VH: B1 VH with H3Q, S97A
VL: B1 VL with V3L
notes: member of the group m7; also called humanized IPN002 variant VH4/Vk1
B17: IPN002 (antibody, V domains shown)
VH: B1 VH with R19K, A40T, G42D, G44R, R67Q, N84S, R87K, A88S, T112S
VL: B1 VL with V3L, S7T, T14S, Q17D, P18Q, Q50K, V88L, V109L
notes: It is the murine parental antibody; also called IPN2; IPN-2

These binders were tested against eTau 4 (FIG. 17) (assay: relative binding affinity, method not named (Table 4); fifth column, headed eTau 4).
With B1 the Kd was 0.294 nM. B2 was tested, and the Kd was 0.589 nM. With B3 the Kd was 0.321 nM. With B4 the Kd was 0.269 nM. With B5 the Kd was 0.454 nM. For B6, the Kd was 0.369 nM. B7 showed a Kd of 0.358 nM. Binder B8 has a Kd of 0.418 nM. Binder B9 has a Kd of 0.381 nM. B10 was tested, and the Kd was 0.469 nM. Work on B11 yielded a Kd of 0.462 nM. Work on B12 yielded a Kd of 0.219 nM. Binder B13 has a Kd of 0.636 nM. B14 gave a Kd of 0.478 nM. In the case of B15, the Kd is reported as 0.291 nM. Binder B16 has a Kd of 0.28 nM.

What follows are binders tested against T4, 383 amino acid recombinant tau (UniProt P10636-6 1-383, biotinylated where printed as biotin-rTau383 (position not given)) (assay: Octet).
T4 construct: also called rTau383
T4 sequence (P10636 other isoform, or with tags, fused parts or gaps limits assumed): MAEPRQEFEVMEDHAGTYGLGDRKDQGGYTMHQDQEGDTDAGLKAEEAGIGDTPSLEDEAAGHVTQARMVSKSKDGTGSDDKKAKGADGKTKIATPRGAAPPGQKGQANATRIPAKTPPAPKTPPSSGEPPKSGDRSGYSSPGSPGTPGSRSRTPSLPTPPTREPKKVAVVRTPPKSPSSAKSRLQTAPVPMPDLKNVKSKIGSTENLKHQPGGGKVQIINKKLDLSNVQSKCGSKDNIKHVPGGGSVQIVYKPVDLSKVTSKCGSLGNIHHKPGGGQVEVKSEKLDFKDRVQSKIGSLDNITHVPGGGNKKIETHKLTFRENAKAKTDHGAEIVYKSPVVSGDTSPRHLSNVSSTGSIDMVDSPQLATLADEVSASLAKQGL
With B1 the Kd was 0.232 nM, the koff was 4.75e-05 s⁻¹ and the kon was 205000 M⁻¹ s⁻¹. In the case of B17, the Kd is reported as 0.206 nM, the koff is reported as 4.78e-05 s⁻¹ and the kon is reported as 233000 M⁻¹ s⁻¹. B2 gave a Kd of 0.577 nM, a koff of 0.000107 s⁻¹ and a kon of 185000 M⁻¹ s⁻¹. Binder B3 has a Kd of 0.446 nM, a koff of 8.74e-05 s⁻¹ and a kon of 196000 M⁻¹ s⁻¹. Binder B4 has a Kd of 0.571 nM, a koff of 9.52e-05 s⁻¹ and a kon of 167000 M⁻¹ s⁻¹. B5 was tested, and the Kd was 1.99 nM, the koff was 0.000257 s⁻¹ and the kon was 129000 M⁻¹ s⁻¹. In the case of B7, the Kd is reported as 0.0426 nM, the koff is reported as 8.75e-06 s⁻¹ and the kon is reported as 206000 M⁻¹ s⁻¹. Binder B8 has a Kd of 1.66 nM, a koff of 0.000236 s⁻¹ and a kon of 142000 M⁻¹ s⁻¹. B9 showed a Kd of 0.475 nM, a koff of 0.0001 s⁻¹ and a kon of 211000 M⁻¹ s⁻¹. Binder B10 has a Kd of 0.169 nM, a koff of 3.15e-05 s⁻¹ and a kon of 187000 M⁻¹ s⁻¹. Work on B11 yielded a Kd of 0.812 nM, a koff of 0.000126 s⁻¹ and a kon of 156000 M⁻¹ s⁻¹. Binder B12 has a Kd of 1.73 nM, a koff of 0.000232 s⁻¹ and a kon of 134000 M⁻¹ s⁻¹. B13 was tested, and the Kd was 0.571 nM, the koff was 9.39e-05 s⁻¹ and the kon was 164000 M⁻¹ s⁻¹. B14 showed a Kd of 1.28 nM, a koff of 0.000233 s⁻¹ and a kon of 182000 M⁻¹ s⁻¹. In the case of B15, the Kd is reported as 1.88 nM, the koff is reported as 0.000307 s⁻¹ and the kon is reported as 163000 M⁻¹ s⁻¹. Binder B16 has a Kd of 2.12 nM, a koff of 0.000297 s⁻¹ and a kon of 140000 M⁻¹ s⁻¹.

Each binder was assayed against T4, 383 amino acid recombinant tau (assay: relative binding affinity, method not named (Table 4)).
In the case of B1, the Kd is reported as 0.199 nM. In the case of B2, the Kd is reported as 0.258 nM. B3 showed a Kd of 0.121 nM. With B4 the Kd was 0.286 nM. B5 was tested, and the Kd was 0.236 nM. B6 was tested, and the Kd was 0.242 nM. Work on B7 yielded a Kd of 0.183 nM. In the case of B8, the Kd is reported as 0.248 nM. Work on B9 yielded a Kd of 0.255 nM. For B10, the Kd was 0.224 nM. For B11, the Kd was 0.379 nM. B12 gave a Kd of 0.223 nM. B13 showed a Kd of 0.276 nM. Work on B14 yielded a Kd of 0.175 nM. For B15, the Kd was 0.16 nM. Work on B16 yielded a Kd of 0.187 nM.

What follows are binders tested against eTau1a (amino acids 2-166 of fetal tau) (Homo sapiens (Human), UniProt P10636 2-541) in the same assay as above.
In the case of B1, the Kd is reported as 0.327 nM. B2 was tested, and the Kd was 0.282 nM. B3 was tested, and the Kd was 0.212 nM. With B4 the Kd was 0.252 nM. B5 showed a Kd of 0.241 nM. With B6 the Kd was 0.281 nM. B7 gave a Kd of 0.294 nM. B8 showed a Kd of 0.343 nM. With B9 the Kd was 0.216 nM. B10 showed a Kd of 0.22 nM. For B11, the Kd was 0.325 nM. With B12 the Kd was 0.327 nM. Binder B13 has a Kd of 0.178 nM. With B14 the Kd was 0.291 nM. B15 showed a Kd of 0.191 nM. Work on B16 yielded a Kd of 0.198 nM.

Biological target: T1, eTau 2
Assay: as above
B1 gave a Kd of 0.283 nM. Work on B2 yielded a Kd of 0.408 nM. B3 gave a Kd of 0.361 nM. For B4, the Kd was 0.427 nM. Work on B5 yielded a Kd of 0.705 nM. With B6 the Kd was 0.225 nM. With B7 the Kd was 0.465 nM. B8 showed a Kd of 0.354 nM. B9 was tested, and the Kd was 0.447 nM. B10 was tested, and the Kd was 0.471 nM. B11 gave a Kd of 0.564 nM. With B12 the Kd was 0.261 nM. Binder B13 has a Kd of 0.473 nM. Binder B14 has a Kd of 0.444 nM. In the case of B15, the Kd is reported as 0.451 nM. B16 was tested, and the Kd was 0.405 nM.

Biological target: T2, eTau 1b
Assay: as above
B1 showed a Kd of 0.229 nM. In the case of B2, the Kd is reported as 0.614 nM. B3 was tested, and the Kd was 0.558 nM. B4 gave a Kd of 0.597 nM. Binder B5 has a Kd of 0.529 nM. Work on B6 yielded a Kd of 0.215 nM. B7 showed a Kd of 0.737 nM. Binder B8 has a Kd of 0.52 nM. Work on B9 yielded a Kd of 0.382 nM. B10 was tested, and the Kd was 0.689 nM. With B11 the Kd was 0.535 nM. B12 showed a Kd of 0.287 nM. Work on B13 yielded a Kd of 0.313 nM. For B14, the Kd was 0.59 nM. B15 gave a Kd of 0.483 nM. With B16 the Kd was 0.359 nM.

Biological target: T3, eTau-4 peptide
Assay: relative binding affinity, method not named (Table 4); sixth column, headed eTau 4
B1 gave a Kd of 0.394 nM. B2 gave a Kd of 0.701 nM. B3 showed a Kd of 0.633 nM. B4 was tested, and the Kd was 0.869 nM. B5 was tested, and the Kd was 0.921 nM. Work on B6 yielded a Kd of 0.321 nM. Binder B7 has a Kd of 0.577 nM. B8 was tested, and the Kd was 0.671 nM. B9 showed a Kd of 0.586 nM. For B10, the Kd was 0.665 nM. B11 was tested, and the Kd was 1.03 nM. With B12 the Kd was 0.411 nM. In the case of B13, the Kd is reported as 0.629 nM. In the case of B14, the Kd is reported as 0.761 nM. B15 showed a Kd of 0.467 nM. B16 showed a Kd of 0.498 nM.
